Measurements: patent US5609876, “Peptide vaccines and associated methods for protection against feline leukemia virus” (University of Pittsburgh of the Commonwealth System of …, dated 1997)
No end group written: not given here.

Target: T1, PRN4358 (feline leukemia virus (FeLV 61-E gp70))
T1 peptide: VAPTTVGPKRIGTGDR-NH2
Assay: 1H-NMR of an equimolar (5 mM) mixture of PRN42 and PRN4358, amide proton protection in D2O

B1: PRN42 (peptide)
peptide: TPPQAMGPNLVLPDQKPPSRQSQTGSKVATQRPQTNESAPRS-NH2
- binding result: binds
